Test results published in patent US20120178139A1 (published 2012).

Key:
[1] = target: T1, mouse glycophorin-A on mouse erythrocytes (mouse, UniProt P14220 1-168); assay: equilibrium binding to mouse erythrocytes, flow cytometry, one-site binding fit
[2] = target: T1, mouse glycophorin-A on mouse …; assay: in vivo, geometric mean fluorescence of circulating erythrocytes by flow cytometry, one-phase exponential decay
Protocol: Consistent with glycophorin-A association, ERY1-OVA bound to erythrocytes (CD45⁻) but not to leukocytes (CD45⁺). ERY1-OVA binding was unbiased as to the apoptotic state of the erythrocytes, binding strongly to both annexin-V⁺ and annexin-V⁻ CD45⁻ populations (FIG. 9b).
150 μg of ERY1-OVA or OVA in 0.9% saline (B. Braun) in a volume of 100 μL was injected intravenously into the tail of 8-12 week old female C57BL/6 mice while under anesthesia with isoflurane. Care was taken to ensure mice were kept at 37 C with a heating pad during experimentation. At predetermined time points, 5 μL of blood was taken from a small incision on the tail, diluted 100-fold into 10 mM EDTA in PBS, washed three times with PBS with 10 mg/mL BSA, and analyzed for OVA content by flow cytometry and ELISA. OVA was quantified by sandwich ELISA, using a mouse monoclonal anti-OVA antibody (Sigma) for capture, a polyclonal rabbit anti-OVA antibody (AbD SEROTEC) for detection, a goat anti-rabbit-IgG-HRP antibody (BioRad) for final detection, followed by TMB substrate (GE Life Sciences). Hematological characterization was performed on an ADVIVA 2120 Hematology System (Siemens). Erythrocyte-bound ERY1-GST was detected by incubating labeled cells with goat anti-GST (GE Healthcare Life Sciences), followed by incubation with AlexaFluor488 donkey anti-goat (Invitrogen), and analyzed by flow cytometry. […]

[3] = target: T1, mouse glycophorin-A on mouse …; assay: photo-crosslinking of biotinylated peptide to whole mouse erythrocytes, streptavidin pull-down and streptavidin Western blot
Protocol: When whole erythrocytes were incubated with ERY1 peptide functionalized with biotin and a photoactivatable crosslinker, a single 28 kDa protein was conjugated with the peptide-biotin complex, as detected by a streptavidin Western blot (FIG. 2A). The reaction lysate was extensively washed and purified using streptavidin magnetic beads to ensure no unlabeled proteins from the erythrocyte lysate remained. […] The mismatch peptide, […] (SEQ ID NO:2), was designed to contain the same amino acid residues as ERY1, and to match its hydrophobicity topography. […] Anti-GYPA Western blotting of the same purified samples from the crosslinking reaction confirmed that the candidate biotinylated protein was indeed GYPA (FIG. 2B).
In brief, peptides were solubilized in PBS/DMF and reacted with 1.05 equivalents of Mts-atf-biotin overnight at 4° C. Following clarification of the reaction by centrifugation, biotinylated peptide was incubated with erythrocytes at in PBSA-50 for 1 h at 37° C., cells were washed twice in fresh PBS, and were UV irradiated at 365 nm for 8 min at room temperature. Cells were lysed by sonication and the lysate was purified using streptavidin-coated magnetic beads (Invitrogen). The eluate was run on an SDS-PAGE and transferred to a PVDF membrane, and immunoblotted with streptavidin-HRP(R&D Systems) or anti-mouse GYPA.

| Binder | Kd [1] [nM] | cell-surface half-life [2] [h] | binding result [3] |
| --- | --- | --- | --- |
| ERY1-OVA (ovalbumin chemically conjugated with ERY1 peptide through SMCC) (other, C-terminal amide; cysteine side chain conjugated via SMCC to lysines of OVA; lysine side chains carry SMCC linked to the cysteine of the ERY1 peptide, also called ERY1-conjugated antigen) GSIGAASMEFCFDVFKELKVHHANENIFYCPIAIMSALAMVYLGAKDSTRTQINKVVRFDKLPGFGDSIEAQCGTSVNVHSSLRDILNQITKPNDVYSFSLASRLYAEERYPILPEYLQCVKELYRGGLEPINFQTAADQARELINSWVESQTNGIIRNVLQPSSVDSQTAMVLVNAIVFKGLWEKAFKDEDTQAMPFRVTEQESKPVQMMYQIGLFRVASMASEKMKILELPFASGTMSMLVLLPDEVSGLEQLESIINFEKLTEWTSSNVMEERKIKVYLPRMKMEEKYNLTSVLMAMGITDVFSSSANLSGISSAESLKISQAVHAAHAEINEAGREVVGSAEAGVDAASVSEEFRADHPFLFCIKHIATNAVLFFGRCVSP peptide: WMVLPWLPGTLDGGSGCRG | 6.2 | 17.2 | – |
| H-PLLTVGMDLWPWGGSGCRG-NH2 (not fully specified (residue 17); also: conjugated to Mts-Atf-biotin, Same amino acids as ERY1, scrambled) [mismatch peptide, soluble, biotinylated (H2N-PLLTVGMDLWPWGGSGCRG-CONH2 conjugated to Mts-Atf-biotin)] | – | – | no binding |
